From US20250152729A1 (CANCER RESEARCH TECHNOLOGY, published 2025) come the findings set out here.

Some results are limits rather than exact numbers.

Test [1] concerns the target T1, recombinant human SEMA4A AviHis10, biotinylated (human, UniProt Q9H3S1 33-683, biotin on the Avi tag (BirA)).
T1 construct: The text says amino acids 33-683 of Q9H3S1 with C-terminal Avi tag and His10 tag; also called avi-SEMA4A-His10
T1 sequence: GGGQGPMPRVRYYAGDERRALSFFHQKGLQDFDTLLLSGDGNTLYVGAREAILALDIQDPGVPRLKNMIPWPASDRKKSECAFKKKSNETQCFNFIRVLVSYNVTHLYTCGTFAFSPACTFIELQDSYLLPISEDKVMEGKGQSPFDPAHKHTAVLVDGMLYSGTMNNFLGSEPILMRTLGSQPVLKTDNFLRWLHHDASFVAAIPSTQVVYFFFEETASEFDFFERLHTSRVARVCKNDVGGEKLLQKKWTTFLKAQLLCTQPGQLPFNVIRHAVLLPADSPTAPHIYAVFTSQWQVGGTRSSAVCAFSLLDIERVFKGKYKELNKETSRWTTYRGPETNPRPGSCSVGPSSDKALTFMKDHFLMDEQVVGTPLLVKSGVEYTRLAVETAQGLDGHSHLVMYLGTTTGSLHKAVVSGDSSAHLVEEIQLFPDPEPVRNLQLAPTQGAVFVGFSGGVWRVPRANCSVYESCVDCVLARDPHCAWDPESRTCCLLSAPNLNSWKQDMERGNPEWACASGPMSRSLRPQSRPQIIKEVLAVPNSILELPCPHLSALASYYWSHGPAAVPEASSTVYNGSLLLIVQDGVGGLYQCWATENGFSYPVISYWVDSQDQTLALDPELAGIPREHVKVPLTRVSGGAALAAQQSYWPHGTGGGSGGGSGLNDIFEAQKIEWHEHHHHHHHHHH
In words: BLI (OctetRED), biotinylated SEMA4A on streptavidin tip, IgG as analyte, 1:1 model; KD(observed) IgG; human SEMA4A; IgG, not Fab. As for the experimental part:
An Octet Kinetics buffer (PBS containing 0.01% (v/v) BSA and 0.002% (v/v) Tween20) is typically used as the diluent buffer for the analyte samples and as the flow buffer during the dissociation phase. The experimental data is recorded as shift in interference pattern (nm) over time, which is directly proportional to the optical thickness at the biosensor tip, which in turn is an approximate measure of the mass of analyte bound. The proprietary Octet Data Analysis software package can then be used to process data and fit binding models to the data sets. Returned association (ka, M-1 s-1) and dissociation (kd, s-1) rate constants allow calculation of dissociation (KD, M) affinity constants.
The affinity of binding between the analytes (humanised and phage display derived IgGs as human Alya IgG1s and Fabs) and human SEMA4A and cynomolgus SEMA4A, was estimated using assays in which the biotinylated SEMA4A antigen was captured on a streptavidin sensor tip. A fresh sensor tip was used for each measurement and no regeneration was used. A series of dilutions of the lead Fabs and human Alya IgG1s (3.25-240 nM) were individually placed in contact with the ligand surface for a sufficient amount of time to observe sensorgrams that could be fitted to an appropriate binding model with confidence (typically 5 minutes), followed by an appropriate length of dissociation time (typically 10 minutes). […]

Test [2] deals with T2, cynomolgus SEMA4A expressed on expi293 cells (UniProt ID G7NV79) (cynomolgus, UniProt Q9H3S1 33-761 (human entry)).
T2 construct: Transient transfection in expi293 cells; also called cyno SEMA4A
T2 chain: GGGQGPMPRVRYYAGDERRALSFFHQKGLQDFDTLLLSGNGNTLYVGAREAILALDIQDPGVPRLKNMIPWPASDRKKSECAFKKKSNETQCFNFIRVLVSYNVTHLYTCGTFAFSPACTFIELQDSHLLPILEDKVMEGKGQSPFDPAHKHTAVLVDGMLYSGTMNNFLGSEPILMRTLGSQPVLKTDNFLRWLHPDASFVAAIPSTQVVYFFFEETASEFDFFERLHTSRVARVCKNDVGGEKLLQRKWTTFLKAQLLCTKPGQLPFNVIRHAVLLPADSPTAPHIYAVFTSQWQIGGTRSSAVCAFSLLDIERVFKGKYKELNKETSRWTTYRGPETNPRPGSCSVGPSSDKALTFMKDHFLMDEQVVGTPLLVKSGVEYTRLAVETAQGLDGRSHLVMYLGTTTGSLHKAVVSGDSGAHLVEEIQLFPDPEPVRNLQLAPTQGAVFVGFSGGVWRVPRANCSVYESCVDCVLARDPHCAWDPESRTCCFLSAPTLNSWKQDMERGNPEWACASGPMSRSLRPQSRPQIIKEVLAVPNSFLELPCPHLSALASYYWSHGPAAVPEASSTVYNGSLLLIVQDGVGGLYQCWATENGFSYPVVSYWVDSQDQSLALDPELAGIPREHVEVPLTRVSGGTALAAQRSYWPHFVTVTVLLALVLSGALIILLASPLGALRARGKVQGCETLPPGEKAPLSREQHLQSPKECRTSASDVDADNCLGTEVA
In words: Mirrorball direct binding, dilution series on expi293 cells transiently transfected with cynomolgus SEMA4A, anti-human Alexa Fluor 647. The source says:
Hits from the primary screening were re-formatted into the human Alya IgG1 vector and re-expressed and purified as described in section 4.1. In addition, a single clone was identified that contained an Asparagine deamidation motif (Asn Gly) within its VHCDR2. This potential sequence liability was de-risked by synthesising de novo two clonal variant VH genes (Asn Ala and Gln Gly) and cloning these sequences into the human Alya IgG1 expression vector. To determine the specificity profile of each purified human Alya IgG1, a dilution series was tested for binding to human SEMA4A, mouse SEMA4A, cyno SEMA4A, human SEMA4B and mock transfected cells (transient transfections set up in expi 293 cells.) The five assays employed methods described in section 2.3, using the appropriate cells and substituting the un-purified scFv periplasmic preparation with the recombinant human Alya IgG1 dilution series. Data was analysed as Count x median mean intensity (x FLU).

B1: mouse 5E3 expressed as human IgG1 Alya (antibody, V domains shown)
VH: QVQLQQPGAELVMPGASVKMSCKASGYTFTDYWMHWVKQRPGQGLEWIGAIDTSDSYTSYNQKFKGKATLTVDESSSTAYMQLSSLTSEDSAVYYCARDYGNFYYYAMDYWGQGTSVTVSS
VL: QAVVTQESALTTSPGETVTLTCRSSTGAVTTSNYANWVQEKPDHLFTGLIGGTNNRAPGVPARFSGSLIGDKAALTITGAQTEDEAIYFCALWYSNHWVFGGGTKLTVL
notes: Mouse variable domains on human IgG1 Alya constant (pEU1.22; 239iCys and S442C, EU numbering); purified, unconjugated; also called 5E3 IgG1 Alya
As to B1, the Kd in test [1] was not above 1 nM. The binding result in test [2] is recorded as “binds”.
